The values that follow come from IntAct's records for PubMed 25910212.

B1: Acetylcholine receptor subunit gamma (Homo sapiens), P07510-2 (parent)
chain: MHGGQGPLLLLLLLAVCLGAQGRNQEERLLADLMQNYDPNLRPAERDSDVVNVSLKLTLTNLISLNEREEALTTNVWIEMQWCDYRLRWDPRDYEGLWVLRVPSTMVWRPDIVLENKSQTYSTNEIDLQLSQEDGQTIEWIFIDPEAFTENGEWAIQHRPAKMLLDPAAPAQEAGHQKVVFYLLIQRKPLFYVINIIAPCVLISSVAILIHFLPAKAGGQKCTVAINVLLAQTVFLFLVAKKVPETSQAVPLISKYLTFLLVVTILIVVNAVVVLNVSLRSPHTHSMARGVRKVFLRLLPQLLRMHVRPLAPAAVQDTQSRLQNGSSGWSITTGEEVALCLPRSELLFQQWQRQGLVAAALEKLEKGPELGLSQFCGSLKQAAPAIQACVEACNLIACARHQQSHFDNGNEEWFLVGRVLDRVCFLAMLSLFICGTAGIFLMAHYNRVPALPFPGDPRPYLPSPD
partner: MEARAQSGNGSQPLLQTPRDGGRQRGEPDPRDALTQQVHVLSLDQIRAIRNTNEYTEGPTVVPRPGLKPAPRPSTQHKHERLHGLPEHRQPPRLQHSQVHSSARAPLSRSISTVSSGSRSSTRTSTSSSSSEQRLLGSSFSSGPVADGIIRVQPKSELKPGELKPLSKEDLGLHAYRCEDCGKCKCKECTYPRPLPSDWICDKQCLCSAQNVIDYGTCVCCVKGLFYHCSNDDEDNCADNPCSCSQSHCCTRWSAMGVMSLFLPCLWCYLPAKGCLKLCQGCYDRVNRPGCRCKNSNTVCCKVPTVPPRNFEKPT
B2: ATP synthase mitochondrial F1 complex assembly factor 2 (Homo sapiens), Q8N5M1 (parent)
chain: MWRSCLRLRDGGRRLLNRPAGGPSASMSPGPTIPSPARAYAPPTERKRFYQNVSITQGEGGFEINLDHRKLKTPQAKLFTVPSEALAIAVATEWDSQQDTIKYYTMHLTTLCNTSLDNPTQRNKDQLIRAAVKFLDTDTICYRVEEPETLVELQRNEWDPIIEWAEKRYGVEISSSTSIMGPSIPAKTREVLVSHLASYNTWALQGIEFVAAQLKSMVLTLGLIDLRLTVEQAVLLSRLEEEYQIQKWGNIEWAHDYELQELRARTAAGTLFIHLCSESTTVKHKLLKE
partner: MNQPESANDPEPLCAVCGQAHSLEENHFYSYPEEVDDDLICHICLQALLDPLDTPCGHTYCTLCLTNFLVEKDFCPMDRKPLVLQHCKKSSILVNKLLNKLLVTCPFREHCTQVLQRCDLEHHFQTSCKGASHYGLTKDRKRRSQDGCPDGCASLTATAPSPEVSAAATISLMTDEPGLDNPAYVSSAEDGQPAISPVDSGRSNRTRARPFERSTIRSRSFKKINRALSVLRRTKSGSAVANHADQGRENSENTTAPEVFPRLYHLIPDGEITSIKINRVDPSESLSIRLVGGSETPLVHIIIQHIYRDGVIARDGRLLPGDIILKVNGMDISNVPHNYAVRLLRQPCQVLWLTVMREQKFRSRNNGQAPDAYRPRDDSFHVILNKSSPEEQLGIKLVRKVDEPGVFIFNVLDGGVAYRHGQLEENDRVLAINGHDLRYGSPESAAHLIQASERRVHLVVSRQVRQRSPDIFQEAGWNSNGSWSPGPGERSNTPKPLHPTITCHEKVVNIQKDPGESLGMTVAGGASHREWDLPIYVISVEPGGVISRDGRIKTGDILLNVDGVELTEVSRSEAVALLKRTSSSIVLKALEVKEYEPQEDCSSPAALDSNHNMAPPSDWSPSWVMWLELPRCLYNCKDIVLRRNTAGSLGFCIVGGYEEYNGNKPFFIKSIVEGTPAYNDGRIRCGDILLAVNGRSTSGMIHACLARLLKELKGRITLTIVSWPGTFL
B3: ATP synthase mitochondrial F1 complex assembly factor 2 (Homo sapiens), Q8N5M1 (parent)
chain: B2 chain
partner: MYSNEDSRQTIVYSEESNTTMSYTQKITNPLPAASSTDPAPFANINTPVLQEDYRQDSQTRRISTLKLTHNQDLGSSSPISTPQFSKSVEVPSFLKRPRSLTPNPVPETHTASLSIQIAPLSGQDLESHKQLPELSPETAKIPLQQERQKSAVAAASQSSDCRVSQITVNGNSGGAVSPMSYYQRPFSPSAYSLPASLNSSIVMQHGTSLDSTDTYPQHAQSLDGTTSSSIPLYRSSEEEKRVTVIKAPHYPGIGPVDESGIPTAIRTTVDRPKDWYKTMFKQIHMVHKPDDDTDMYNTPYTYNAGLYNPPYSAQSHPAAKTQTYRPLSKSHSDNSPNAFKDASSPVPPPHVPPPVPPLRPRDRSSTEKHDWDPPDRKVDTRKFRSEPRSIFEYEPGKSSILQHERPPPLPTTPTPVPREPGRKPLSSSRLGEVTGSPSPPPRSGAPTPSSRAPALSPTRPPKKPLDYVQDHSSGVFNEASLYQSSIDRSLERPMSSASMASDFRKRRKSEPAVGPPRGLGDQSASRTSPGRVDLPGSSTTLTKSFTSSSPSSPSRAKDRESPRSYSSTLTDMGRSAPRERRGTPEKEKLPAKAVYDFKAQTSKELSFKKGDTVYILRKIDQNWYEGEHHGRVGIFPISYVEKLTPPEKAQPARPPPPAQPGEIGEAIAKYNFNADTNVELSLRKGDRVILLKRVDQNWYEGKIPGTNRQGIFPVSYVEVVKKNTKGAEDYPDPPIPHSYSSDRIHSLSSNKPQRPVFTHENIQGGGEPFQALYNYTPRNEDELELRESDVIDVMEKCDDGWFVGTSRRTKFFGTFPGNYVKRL
B4: 5-aminolevulinate synthase, erythroid-specific, mitochondrial (Homo sapiens), P22557-2 (parent)
chain: MVTAAMLLQCCPVLARGPTSLLGKVVKTHQFLFGIGRCPILATQGPNCSQIHLKATKAGGDSPSWAKGHCPFMLSELQDGKSKIVQKAAPEVQEDVKAFKTGNYVFSYDQFFRDKIMEKKQDHTYRVFKTVNRWADAYPFAQHFSEASVASKDVSVWCSNDYLGMSRHPQVLQATQETLQRHGAGAGGTRNISGTSKFHVELEQELAELHQKDSALLFSSCFVANDSTLFTLAKILPGCEIYSDAGNHASMIQGIRNSGAAKFVFRHNDPDHLKKLLEKSNPKIPKIVAFETVHSMDGAICPLEELCDVSHQYGALTFVDEVHAVGLYGSRGAGIGERDGIMHKIDIISGTLGKAFGCVGGYIASTRDLVDMVRSYAAGFIFTTSLPPMVLSGALESVRLLKGEEGQALRRAHQRNVKHMRQLLMDRGLPVIPCPSHIIPIRVGNAALNSKLCDLLLSKHGIYVQAINYPTVPRGEELLRLAPSPHHSPQMMEDFVEKLLLAWTAVGLPLQDVSVAACNFCRRPVHFELMSEWERSYFGNMGPQYVTTYA
partner: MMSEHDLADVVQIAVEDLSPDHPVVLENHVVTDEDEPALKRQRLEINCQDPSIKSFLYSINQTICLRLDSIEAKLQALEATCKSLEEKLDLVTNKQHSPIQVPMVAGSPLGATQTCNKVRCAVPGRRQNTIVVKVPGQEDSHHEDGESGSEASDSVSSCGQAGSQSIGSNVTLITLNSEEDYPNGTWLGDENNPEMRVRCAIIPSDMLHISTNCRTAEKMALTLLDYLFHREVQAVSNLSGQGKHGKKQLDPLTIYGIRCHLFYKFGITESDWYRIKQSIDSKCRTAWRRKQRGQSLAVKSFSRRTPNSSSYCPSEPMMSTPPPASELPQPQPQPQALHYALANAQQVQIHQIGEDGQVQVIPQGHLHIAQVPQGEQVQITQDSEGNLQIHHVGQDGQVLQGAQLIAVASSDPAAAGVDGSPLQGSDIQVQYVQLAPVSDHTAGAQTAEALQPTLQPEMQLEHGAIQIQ
B5: Ketohexokinase (Homo sapiens), P50053-2 (parent)
chain: MEEKQILCVGLVVLDVISLVDKYPKEDSEIRCLSQRWQRGGNASNSCTVLSLLGAPCAFMGSMAPGHVADFVLDDLRRYSVDLRYTVFQTTGSVPIATVIINEASGSRTILYYDRSLPDVSATDFEKVDLTQFKWIHIEGRNASEQVKMLQRIDAHNTRQPPEQKIRVSVEVEKPREELFQLFGYGDVVFVSKDVAKHLGFQSAEEALRGLYGRVRKGAVLVCAWAEEGADALGPDGKLLHSDAFPPPRVVDTLGAGDTFNASVIFSLSQGRSVQEALRFGCQVAGKKCGLQGFDGIV
partner: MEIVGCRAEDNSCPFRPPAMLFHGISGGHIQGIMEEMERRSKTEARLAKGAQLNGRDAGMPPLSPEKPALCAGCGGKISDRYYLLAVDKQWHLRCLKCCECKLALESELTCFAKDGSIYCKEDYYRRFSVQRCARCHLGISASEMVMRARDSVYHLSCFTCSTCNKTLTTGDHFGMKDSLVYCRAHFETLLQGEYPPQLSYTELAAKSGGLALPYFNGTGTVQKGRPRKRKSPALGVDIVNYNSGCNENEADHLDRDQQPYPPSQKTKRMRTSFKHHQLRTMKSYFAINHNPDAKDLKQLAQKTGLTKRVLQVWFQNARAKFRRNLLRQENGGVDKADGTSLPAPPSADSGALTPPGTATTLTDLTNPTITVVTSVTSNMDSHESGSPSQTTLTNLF

One assay covers variants of B1. Conditions: with spy2_human SPRY2, O43597.
Turning to R86C, the “effect of a mutation on the interaction” value was “disrupting interaction strength”.

For R187C, the “effect of a mutation on the interaction” value was “disrupting interaction strength”.

Variants of B2 are the subject of a further assay. As to conditions: with lnx1_human LNX1, Q8TBB1.
As for W94R, the “effect of a mutation on the interaction” value was “disrupting interaction strength”.

In the next assay the parent is B3. Conditions: with SORBS2, O94875-10.
As to W94R, the “effect of a mutation on the interaction” value is “disrupting interaction strength”.

Variants of B4 are the subject of the next assay. As to conditions: with BANP.
For I252T, the “effect of a mutation on the interaction” value was “disrupting interaction strength”.

Take R411Q: the “effect of a mutation on the interaction” value is on record as “disrupting interaction strength”.

Regarding I439N, the “effect of a mutation on the interaction” value is on record as “disrupting interaction strength”.

As to R133H, the “effect of a mutation on the interaction” value is on record as “with no effect”.

Variants of B5 are the subject of another assay. Conditions: with lhx9_human LHX9, Q9NQ69.
G40R: the “effect of a mutation on the interaction” value is reported as “with no effect”.

With A43T, the “effect of a mutation on the interaction” value is reported as “with no effect”.
